Measured values taken from patent EP4296674A1 (Université Toulouse III - Paul Sabatier, dated 2023).

T1: HadD-Ctrp fusion protein (C-terminal fragment of S. cerevisiae Trp1p fused to the C-terminal end of HadD of … (Mycobacterium tuberculosis (HadD); …)
T1 chain: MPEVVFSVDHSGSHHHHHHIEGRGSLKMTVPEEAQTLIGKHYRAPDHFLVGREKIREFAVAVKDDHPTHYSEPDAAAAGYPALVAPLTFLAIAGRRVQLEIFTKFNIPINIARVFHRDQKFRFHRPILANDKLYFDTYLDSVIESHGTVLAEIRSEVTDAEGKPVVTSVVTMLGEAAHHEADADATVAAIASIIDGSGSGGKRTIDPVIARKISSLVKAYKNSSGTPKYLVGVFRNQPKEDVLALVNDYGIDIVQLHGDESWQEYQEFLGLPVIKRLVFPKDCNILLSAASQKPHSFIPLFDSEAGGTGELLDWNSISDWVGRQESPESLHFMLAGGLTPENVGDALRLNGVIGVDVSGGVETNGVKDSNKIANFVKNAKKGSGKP

T2: HadC-Ctrp fusion protein (Mycobacterium tuberculosis (HadC); …)
T2 chain: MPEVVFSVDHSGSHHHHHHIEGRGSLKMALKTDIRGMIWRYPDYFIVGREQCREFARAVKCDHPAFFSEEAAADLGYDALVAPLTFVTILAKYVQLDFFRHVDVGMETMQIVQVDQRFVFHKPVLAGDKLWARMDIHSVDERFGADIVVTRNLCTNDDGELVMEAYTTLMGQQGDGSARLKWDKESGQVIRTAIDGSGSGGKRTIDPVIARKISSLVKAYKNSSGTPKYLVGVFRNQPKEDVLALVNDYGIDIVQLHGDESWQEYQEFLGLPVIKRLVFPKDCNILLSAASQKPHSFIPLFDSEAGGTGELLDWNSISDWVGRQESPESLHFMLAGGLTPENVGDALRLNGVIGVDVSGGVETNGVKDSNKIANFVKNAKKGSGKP

T3: HadD of M. bovis BCG (BCG_0547c) (Mycobacterium bovis BCG, UniProt P64726 1-166)
T3 sequence: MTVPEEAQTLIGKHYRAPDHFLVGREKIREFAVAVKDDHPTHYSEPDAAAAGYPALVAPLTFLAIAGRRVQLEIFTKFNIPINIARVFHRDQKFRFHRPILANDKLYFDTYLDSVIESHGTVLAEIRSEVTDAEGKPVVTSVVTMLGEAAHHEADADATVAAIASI

T4: HadC (Rv0637) (Mycobacterium tuberculosis, UniProt P9WFJ9 1-166)
T4 sequence: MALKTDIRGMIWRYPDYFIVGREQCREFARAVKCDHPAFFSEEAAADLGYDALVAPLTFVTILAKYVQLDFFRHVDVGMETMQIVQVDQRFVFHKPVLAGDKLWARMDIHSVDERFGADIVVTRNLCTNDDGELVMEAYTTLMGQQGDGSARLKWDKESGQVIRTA

T5: Cfp10-Ctrp fusion protein (Mycobacterium tuberculosis (Cfp10); …)
T5 chain: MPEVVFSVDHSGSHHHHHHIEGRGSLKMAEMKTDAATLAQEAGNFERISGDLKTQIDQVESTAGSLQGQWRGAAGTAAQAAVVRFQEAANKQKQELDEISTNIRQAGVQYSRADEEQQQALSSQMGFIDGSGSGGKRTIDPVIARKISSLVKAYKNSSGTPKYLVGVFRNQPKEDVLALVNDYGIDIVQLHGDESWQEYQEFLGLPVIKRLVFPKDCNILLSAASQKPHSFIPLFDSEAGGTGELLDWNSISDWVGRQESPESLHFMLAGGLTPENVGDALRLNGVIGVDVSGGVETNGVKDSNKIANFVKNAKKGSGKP

B1: Ntrp-HadB fusion protein (N-terminal fragment of S. cerevisiae Trp1p fused to the N-terminal end of HadB of Mtb) (other)
chain: MPEVVFSVDHSGSGTMYPYDVPDYASSVINFTGSSGPLVKVCGLQSTEAAECALDSDADLLGIICVPNRGGSGSGLKMALREFSSVKVGDQLPEKTYPLTRQDLVNYAGVSGDLNPIHWDDEIAKVVGLDTAIAHGMLTMGIGGGYVTSWVGDPGAVTEYNVRFTAVVPVPNDGKGAELVFNGRVKSVDPESKSVTIALTATTGGKKIFGRAIASAKLA
B2: HadA of Mycobacterium tuberculosis fused to an enhanced Green Fluorescent Protein (eGFP) tag at its N-terminus (other)
chain: MALSADIVGMHYRYPDHYEVEREKIREYAVAVQNDDAWYFEEDGAAELGYKGLLAPLTFICVFGYKAQAAFFKHANIATAEAQIVQVDQVLKFEKPIVAGDKLYCDVYVDSVREAHGTQIIVTKNIVTNEEGDLVQETYTTLAGRAGEDGEGFSDGAA
B3: Ntrp-HadDMtb fusion protein (other)
chain: SSVINFTGSSGPLVKVCGLQSTEAAECALDSDADLLGIICVPNRMTVPEEAQTLIGKHYRAPDHFLVGREKIREFAVAVKDDHPTHYSEPDAAAAGYPALVAPLTFLAIAGRRVQLEIFTKFNIPINIARVFHRDQKFRFHRPILANDKLYFDTYLDSVIESHGTVLAEIRSEVTDAEGKPVVTSVVTMLGEAAHHEADADATVAAIASI
B4: Ntrp-Esat6 fusion protein (other)
chain: MPEVVFSVDHSGSGTMYPYDVPDYASSVINFTGSSGPLVKVCGLQSTEAAECALDSDADLLGIICVPNRGGSGSGLKMTEQQWNFAGIEAAASAIQGNVTSIHSLLDEGKQSLTKLAAAWGGSGSEAYQGVQQKWDATATELNNALQNLARTISEAGQAMASTEGNVTGMFA
B5: HadB protein of Mycobacterium tuberculosis (untagged) (enzyme)
chain: MALREFSSVKVGDQLPEKTYPLTRQDLVNYAGVSGDLNPIHWDDEIAKVVGLDTAIAHGMLTMGIGGGYVTSWVGDPGAVTEYNVRFTAVVPVPNDGKGAELVFNGRVKSVDPESKSVTIALTATTGGKKIFGRAIASAKLA

Legend:
[1] = target: N-terminal polyHis-tagged HadD of Mycobacterium tuberculosis (Mycobacterium tuberculosis); experiment: from the HadBD crystal structure
[2] = target: HadB protein of Mycobacterium tuberculosis (untagged) (Mycobacterium tuberculosis)
[3] = target: N-terminal polyHis-tagged HadD of Mycobacterium tuberculosis (Mycobacterium tuberculosis); experiment: PDBePISA analysis of the HadBD crystal structure
[4] = target: T1, HadD-Ctrp fusion protein (C-terminal …); experiment: split-Trp assay in M. smegmatis ΔhisA
HadC-Ctrp fusion protein = target: T2, HadC-Ctrp fusion protein; experiment: split-Trp assay in M. smegmatis ΔhisA, positive control pair
[5] = target: T3, HadD of M. bovis BCG (BCG_0547c); experiment: pull-down from M. bovis BCG on anti-GFP magnetic beads, nanoLC-MS/MS proteomics
HadC (Rv0637) = target: T4, HadC (Rv0637); experiment: as above
[6] = target: T1, HadD-Ctrp fusion protein (C-terminal …); experiment: split-Trp assay in M. smegmatis ΔhisA, growth on medium without Trp
[7] = target: T5, Cfp10-Ctrp fusion protein; experiment: split-Trp assay in M. smegmatis ΔhisA, positive control pair
[8] = target: B2; experiment: pull-down from M. bovis BCG on anti-GFP magnetic beads, nanoLC-MS/MS proteomics

HadB protein of Mycobacterium tuberculosis (untagged) (enzyme)
total buried surface at each heterodimer interface [1]: 3840 A^2 | buried surface area [2]: 525 A^2 | ΔG (PDBePISA) [2]: -24.3 kJ/mol | surface of heterodimerization (PDBePISA) [3]: 1340 Å^2 | ΔG of heterodimerization (PDBePISA) [3]: -46 kJ/mol

B1
binding result [4]: binds | binding result (HadC-Ctrp fusion protein): binds

B2
binding result [5]: binds | binding result (HadC (Rv0637)): binds

B3
binding result [6]: no binding

B4
binding result [7]: binds

B5
binding result [8]: binds
